From patent publication US12365732 (23ANDME, dated 2025)
Changes are numbered by the printed parent chain. In names and notes the source's numbering stands.

T1: hu-CD96 (soluble, isoform 2 extracellular domain) (human, UniProt P40200 22-516, biotinylated in Octet and blocking ELISA)
T1 construct: the assays name only hu-CD96; also called hCD96; biotinylated hu-CD96
T1 sequence: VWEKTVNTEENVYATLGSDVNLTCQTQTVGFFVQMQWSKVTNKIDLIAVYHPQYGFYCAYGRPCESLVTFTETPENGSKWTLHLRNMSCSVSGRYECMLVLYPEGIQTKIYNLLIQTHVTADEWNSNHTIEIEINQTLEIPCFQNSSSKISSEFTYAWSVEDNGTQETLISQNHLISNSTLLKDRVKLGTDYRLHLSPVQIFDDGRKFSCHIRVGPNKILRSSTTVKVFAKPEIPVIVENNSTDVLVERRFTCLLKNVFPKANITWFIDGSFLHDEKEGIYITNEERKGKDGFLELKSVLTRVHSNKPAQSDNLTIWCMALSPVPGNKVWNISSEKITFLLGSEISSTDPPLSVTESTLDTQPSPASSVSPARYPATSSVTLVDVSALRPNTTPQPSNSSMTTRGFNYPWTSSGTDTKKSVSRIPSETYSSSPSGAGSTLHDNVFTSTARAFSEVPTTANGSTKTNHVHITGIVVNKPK

B1: mAb1.v7 Fab (Fab, V domains shown)
VH: EVQLVQSGAEVKKPGASVKVSCKASGFTFTNNWMHWVRQAPGQGLEWIGMIHPNSGITNINEKFKNRVTMTTDTSTSTAYMELRSLRSEDTAVYYCRSDGTYEGYFDYWGQGTLVTVSS
VL: DIQLTQSPSSLSASVGDRVTITCKASQNVGTAIVWYQQKPGKAPKVLIYSASTRYTGVPSRFSGSGSGTDFTLTISSLQPEDFATYYCQQYSSSPLTFGQGTKVEIK
B2: mAb1.v7.9 Fab (Fab, V domains shown)
VH: B1 VH with M34R, P53M, T101V
VL: B1 VL
notes: also called M34R/P52aM/T97V
B3: mAb1.v7.48 Fab (Fab, V domains shown)
VH: B1 VH with N32R, P53H, T101V
VL: B1 VL
notes: also called N32R/P52aH/T97V
B4: mAb1.v7.16 Fab (Fab, V domains shown)
VH: B1 VH with M34R, T101V
VL: B1 VL
notes: also called M34R/T97V
B5: mAb1.v7.2 Fab (Fab, V domains shown)
VH: B1 VH with M34R, P53F, T101V
VL: B1 VL
notes: also called M34R/P52aF/T97V
B6: mAb1.v7.70 Fab (Fab, V domains shown)
VH: B1 VH with N32R, P53A, T101V
VL: B1 VL
notes: also called N32R/P52aA/T97V

Columns and labels:
[1] = molecular target: T1, hu-CD96 (soluble, isoform 2 …); assay: phage competition ELISA, soluble CD96 vs coated hu-CD96
Protocol: 192 colonies from most stringent selections (biotinylated 0.1 nM of hu-CD96 or cy-CD96 with 1000× non-biotinylated human or cy-CD96) were grown in 400 µL 2YT with 4 µL helper phage M13KO7 overnight at 37° C. with shaking. After spinning down the pellet, the phage supernatant was diluted 1:1 with 2 nM hu-CD96, 20 nM cy-CD96 and ELISA buffer (0.5% BSA and 0.05% TWEEN®20 in PBS) in total […] and incubated for two hours at room temperature with agitation. The […] of mixture was transferred to hu-CD96 coated plate for 15 min to capture unbound phage. The plate was washed with wash buffer (0.05% TWEEN®20 in PBS), and HRP-conjugated anti-M13 antibody (Sino biological, Cat #11973-MM05-H-50) was added in ELISA buffer for 30 min. […] Enzymatic color development was stopped using TMB stop solution (VWR, Cat #95059-200). Plates were analyzed with a SpectraMax i3X plate reader (Molecular Devices). The % inhibition was calculated by the $OD450$ of wells with hu-CD96/cy-CD96 competitor divided by $OD450$ of wells with buffer alone. The lower % inhibition indicated higher phage $IC50$ against hu-CD96 or cy-CD96.
Selected top inhibition % phage variants from single spot competition were purified from culture supernatants. The optimal phage concentration was incubated with serially-diluted hu-CD96 or cy-CD96 in ELISA buffer in NUNC F plate for two hours. The […] of the mixture was transferred to hu-CD96 coated wells for 15 min to capture unbound phage. The plate was washed with wash buffer (0.05% TWEEN®20 in PBS), and HRP-conjugated anti-M13 antibody (Sino biological, Cat #11973-MM05-H-50) was added in ELISA buffer for 30 min. The plates were washed and developed as described above. The absorbance at 450 nm was plotted as a function of antigen concentration in solution to determine phage $IC50$.

[2] = molecular target: T1, hu-CD96 (soluble, isoform 2 …); assay: BLI (Octet), biotin-CD96 on SA, Fab analyte
Protocol: The binding affinity of the generated Fab variants of mAb1.v7 for hu-CD96 and cy-CD96 was determined by OCTET (Pall ForteBio) Bio-Layer Interferometry (BLI) binding analysis. The biotinylated hu-CD96 or biotinylated cy-CD96 was diluted to a final concentration 10 µg/mL in experimental buffer (PBS buffer with 0.01% Tween-20) and immobilized on the Streptavidin Capture (SA) biosensors (Pall ForteBio). Three-fold serial dilutions of the mAb1.v7 Fab variants starting at 1 µM as analytes were diluted in the experimental buffer (PBS buffer with 0.01% Tween-20). The biosensors were equilibrated in experimental buffer at 30° C. for ten minutes prior to starting the experiment. The kinetics experiment was performed with the following steps, where the step name, solution and time are listed: Baseline (buffer—60 seconds), Loading (biotinylated antigen—200 seconds), Baseline 2 (buffer—minimum 120 seconds), Association (analyte—200-300 seconds) and Dissociation (buffer—1000 seconds). The resulting BLI signal from analyte association and dissociation from the […] was analyzed using the Octet Data Analysis software (Pall ForteBio). First a reference subtraction was performed on all recorded traces using the reference well (biosensor that underwent same steps as experimental wells but no analyte for the Association step) and then all the traces were aligned to the beginning of the Association step. The entirety of the Association and Dissociation steps were used in a Global fit (minimum of four analyte concentration traces) in a 1:1 binding model to calculate the K_D values for the 16 selected individual mAb1.v7 Fab variants as summarized in Table 9 (below).

hu-CD96 Fc = molecular target: T2, hu-CD96 Fc (human, biotinylated in Table 16); assay: SPR 25C, CD96-Fc on Protein A, Fab analyte
T2 construct: also called biotinylated hu-CD96-Fc
Protocol: Briefly, hu-CD96 Fc and cy-CD96 Fc were diluted at 10 µg/mL in HBS-P buffer (0.01 M HEPES pH 7.4, 0.15 M NaCl, 0.005% Surfactant P20) and applied to the Protein A chip at 30 µL/min flow rate for 60 s in flow cell 2 (FC2). Then flow 3-fold serial dilutions of mAb1.v7 Fab variants in HBS-P buffer (0.01 M HEPES pH 7.4, 0.15 M NaCl, 0.005% surfactant P20) from (0.4 nM) to high (1000 nM) were injected (flow rate: 30 µL/min) at 25° C. to both flow cell 1 (FC1) and flow cell 2 (FC2). The sensorgram was recorded and subject to reference and buffer subtraction before evaluating by BIA- CORE® 8K Evaluation Software (version 1.1.1.7442). Association rates ($kon$) and dissociation rates ($koff$) were calculated using a simple one-to-one Langmuir binding model. The equilibrium dissociation constant (K_D) was calculated as the ratio of $koff/kon$, and the values determined for the mAb1.v7 and the 5 Fab variants are summarized in Table 10 (below).

Binder | apparent IC50 (pooled screen) [1] | apparent Kd (pooled screen) [2] | Kd (hu-CD96 Fc) | koff (hu-CD96 Fc) | kon (hu-CD96 Fc) | IC50 [1] | Kd [2]
B1 | 500 pM | 76000 pM | 44600 pM | 0.000817 s⁻¹ | 18300 M⁻¹ s⁻¹ | – | –
B2 | – | – | 5050 pM | 7.02e-05 s⁻¹ | 13900 M⁻¹ s⁻¹ | 110 pM | ~100 pM
B3 | – | – | 795 pM | 1.26e-05 s⁻¹ | 15900 M⁻¹ s⁻¹ | 100 pM | ~100 pM
B4 | – | – | 380 pM | 2.81e-06 s⁻¹ | 7380 M⁻¹ s⁻¹ | 100 pM | 1400 pM
B5 | – | – | 670 pM | 1.06e-05 s⁻¹ | 15800 M⁻¹ s⁻¹ | 80 pM | 3750 pM
B6 | – | – | 1730 pM | 2.74e-05 s⁻¹ | 15900 M⁻¹ s⁻¹ | 140 pM | ~100 pM
